T1: monkey MSLN full-length protein (NCBI: XP_028696439.1) expressed on HEK293T-monkey MSLN cells (monkey)
T1 construct: Whole encoded precursor
T1 chain: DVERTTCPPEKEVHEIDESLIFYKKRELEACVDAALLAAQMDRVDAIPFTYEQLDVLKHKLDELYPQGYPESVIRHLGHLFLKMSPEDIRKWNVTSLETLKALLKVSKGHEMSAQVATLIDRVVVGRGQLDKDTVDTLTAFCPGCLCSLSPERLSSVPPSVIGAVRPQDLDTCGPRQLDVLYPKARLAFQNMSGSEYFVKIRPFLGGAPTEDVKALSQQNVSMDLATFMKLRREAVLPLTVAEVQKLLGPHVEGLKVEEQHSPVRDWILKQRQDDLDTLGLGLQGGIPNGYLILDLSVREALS

B1: Tab111 (scFv, not shown: small tags and cut ends)
scFv: DVVMTQTPASVSEPVGGTVTIKCQASQRISSYLSWYQQKPGQRPKLLIFGASTLASGVPSRFKGSGSGTEYTLTISDLECADAATYYCQSYAYFDSNNWHAFGGGTEVVVGGGGSGGGGSGGGGSQQQLEESGGGLVKPEGSLTLTCKASGFDLGFYFYACWVRQAPGKGLEWIACIYTAGSGSTYYASWAKGRFTISKASSTTVTLQMTSLAAADTATYFCARSTANTRSTYYLNLWGPGTLVTVSS
notes: also called YP218 VL-(G4S)3-VH-his antibody; positive control
B2: Tab110 (scFv, not shown: small tags and cut ends)
scFv: QQQLEESGGGLVKPEGSLTLTCKASGFDLGFYFYACWVRQAPGKGLEWIACIYTAGSGSTYYASWAKGRFTISKASSTTVTLQMTSLAAADTATYFCARSTANTRSTYYLNLWGPGTLVTVSSGGGGSGGGGSGGGGSDVVMTQTPASVSEPVGGTVTIKCQASQRISSYLSWYQQKPGQRPKLLIFGASTLASGVPSRFKGSGSGTEYTLTISDLECADAATYYCQSYAYFDSNNWHAFGGGTEVVV
notes: also called YP218 VH-(G4S)3-VL-his antibody; positive control
B3: S009-F2.13.3 (antibody, human IgG1, kappa, V domains shown)
VH: QVQLQQSGAELMKPGASVKLSCKATGYTFTGYWIEWVKQRPGHGLEWIGEILPGSGSTNYNEKFKGKATFTADTSSNTAYMQLSSLTTEDSAIYYCARAGAWFAYWGQGTLVTVSA
VL: QIVLTQSPAIMSASLGERVTMTCTASSSVSSSYLHWYQQKPGSSPKLWTYSTSNLASGVPARFSGSGSGTSYSLTISSMEAEDAATYYCHQYHRSPWTFGGGTKLEIKR
notes: human-murine chimeric antibody, human IgG1/kappa constant regions
B4: S009-F2.39.3 (antibody, human IgG1, kappa, V domains shown)
VH: QVQLQQPGTELVKPGASVKLSCKASGYTFTNYWMHWVKQRPGQGLEWIGNINPSSGDSYYNERFMSKAKMTVDKSSSTAYMQLSSLTSEDSAVYYCARSGGLWLAFWGPGTLVTVSA
VL: DIVMTQSPSSLAMSVGQKVTMSCKSSQTLLNSVSQNNYLAWYQQKPGQSPTLLVYFASTRESGVPDRFIGGGSGTDFTLTISSVQAEDLADYFCQQHYRTPYTFGGGTNLEIKR
notes: as for B3
B5: S009-F2.23.12 (antibody, human IgG1, kappa, V domains shown)
VH: QVQLQQPGTELVKPGASVKLSCKASGYTFTNYWMHWVKQRPGQGLEWIGNINPSNGGPYYNERFRSKATLTVDKSSSTAYMQLSSLTSEDSAVYYCARPYYGSSYGYFDYWGQGTTLTVSS
VL: DIQMTQSPSSLSASLGGKVTITCKASQDINKYIAWYQHKPGKGPRLLIHYTSELQPGIPSRFSGNGSGRDYSFSISNLEPEDIATYYCLQYANPLRTFGGGTKLEIKR
notes: as for B3
B6: S009-F2.17.3 (antibody, human IgG1, kappa, V domains shown)
VH: QVQLQQPGTELVTPGASVKLSCKASGYSFTSYWMHWVKQRPGQGLEWIGNINPSNGDTFYNEKFKNKATLTVDKSSSTAYMQLSSLTSEDSAVYYCARGWLRDYWGQGTTLTVSS
VL: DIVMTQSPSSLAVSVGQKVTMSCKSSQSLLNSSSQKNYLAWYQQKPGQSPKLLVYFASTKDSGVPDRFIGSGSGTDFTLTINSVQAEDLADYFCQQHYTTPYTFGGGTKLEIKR
notes: as for B3
B7: S009-F2-56.12 (antibody, human IgG1, kappa, V domains shown)
VH: DVQLQESGPGMVKPSQSLSLTCTVTGYSITSGYDWHWIRHFPGNKLEWMGYISYSGSTNYNPSLKSRISITHDTSKNHFFLKLKSVTTEDTATYYCARGTGPDYWGQGTTLTVSS
VL: DIVMTQSQKFMSTSVGDRVSITCKASQNVRTAVAWYQQKPGQSPKALIHLPSNRHTGVPDRFTGSGSGTDFTLTISNVQSEDLADYFCLQHWNYPLTFGGGTKLEIKR
notes: as for B3
B8: S009-F2.21.4 (antibody, human IgG1, kappa, V domains shown)
VH: EVQLQQSGPELVKPGASVKIPCKASGYTFTDYNMDWVKQSHGKSLEWIGDINPNNGGSIYNQRFKGKATLTVDKSSSTAYMELRSLTSEDSAVYYCARRAYYSTGYFDVWGTGTTVTVSS
VL: QIVLTQSPALMSASPGEKVTITCSASSSISYMHWFQQKPGTSPKLWIYSTSTLASGVPARFSGSGSGTSYSLTISRMEAEDTATYYCQQRSSYPPTFGGGTKLEIKR
notes: as for B3
B9: S009-F2.16.10 (antibody, human IgG1, kappa, V domains shown)
VH: QVQLQQPGAELIKPGASVKLSCKASGYTFTSYWMHWVKQRPGQGLEWIGIIHPNIGSTNYNERFKSKATLTVDKSSSTAYMQLSSLTSEDSAVYYCARRSSNYGDWYFDVWGTGTTVTVSS
VL: DIVMTQSHRFMSTSVGDRVSITCKASQDVGTSVAWYQQKPGQSPKLLIYWASTQHTGVPDRFTGSGSGTDFTLTINNVQSEDLLDYFCQQYSSYPLTFGAGTKLELKR
notes: as for B3
B10: S009-F2.47.1 (antibody, human IgG1, kappa, V domains shown)
VH: QVQLQQPGAELVKPGASVKLSCKASGYTFTSYWMHWVKQRPGQGLEWIGMIHPNSGSTNYNEKFKSKATLTVDKSSSTAYMQLSSLTSEDSAVYYCARPVVPYWYFDVWGTGTTVTVSS
VL: DIVMTQSQKFMSTTVGDRVSITCKASQNVGTAVAWYQQKPGQSPKLLIYSASNRYTGVPDRFTGSGSGTDFTLTISNMQSEDLADYFCQQSSSYPLTFGAGTKLELKR
notes: as for B3

The binders below were run against T2, human MSLN-R3 protein (human, UniProt Q13421 487-598) (assay: ELISA on coated antigen, antibody 10 nM).
T2 construct: also called hMSLN-R3
T2 sequence (Q13421 495-606, form in doubt): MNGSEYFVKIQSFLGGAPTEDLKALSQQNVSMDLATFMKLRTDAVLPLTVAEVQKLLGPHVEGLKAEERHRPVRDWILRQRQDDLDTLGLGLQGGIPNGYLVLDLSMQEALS

| OD450 [OD450] | Binder |
| --- | --- |
| 1.88 | B1 |
| 0.78 | B2 |

The binders below were run against T2, human MSLN-R3 protein (assay: ELISA on coated antigen, antibody 0.0001 nM).

| OD450 [OD450] | Binder |
| --- | --- |
| 0.05 | B1 |
| 0.05 | B2 |

The binders below were run against T2, human MSLN-R3 protein (assay: ELISA on coated antigen, antibody 0.1 nM).

| OD450 [OD450] | Binder |
| --- | --- |
| 0.09 | B1 |
| 0.04 | B2 |

Target: T2, human MSLN-R3 protein
Assay: ELISA on coated antigen, antibody 10 nM
Remark: another data set of the same source

| OD450 [OD450] | Binder |
| --- | --- |
| 1.88 | B1 |
| 0.78 | B2 |

The binders below were run against T2, human MSLN-R3 protein (assay: ELISA on coated antigen, antibody 0.01 nM).

| OD450 [OD450] | Binder |
| --- | --- |
| 0.05 | B1 |
| 0.04 | B2 |

Target: T2, human MSLN-R3 protein
Assay: ELISA on coated antigen, antibody 0.0001 nM
Remark: another data set of the same source

| OD450 [OD450] | Binder |
| --- | --- |
| 0.05 | B1 |
| 0.05 | B2 |

These binders were tested against T2, human MSLN-R3 protein (assay: ELISA on coated antigen, antibody 1 nM).

| OD450 [OD450] | Binder |
| --- | --- |
| 0.51 | B1 |
| 0.06 | B2 |

What follows are binders tested against T2, human MSLN-R3 protein (assay: ELISA on coated antigen, antibody 0.001 nM).

| OD450 [OD450] | Binder |
| --- | --- |
| 0.05 | B1 |
| 0.04 | B2 |

Target: T2, human MSLN-R3 protein
Assay: ELISA on coated antigen, antibody 0.001 nM
Remark: another data set of the same source

| OD450 [OD450] | Binder |
| --- | --- |
| 0.05 | B1 |
| 0.04 | B2 |

Each binder was assayed against T3, human MSLN full-length protein (NCBI: AAH09272.1) expressed on HEK293T-hMSLN-B8 cells (human, UniProt Q13421 296-598) (assay: FACS on HEK293T-hMSLN-B8 cells).
T3 construct: Whole encoded precursor
T3 sequence (Q13421 other isoform, or with tags, fused parts or gaps limits assumed): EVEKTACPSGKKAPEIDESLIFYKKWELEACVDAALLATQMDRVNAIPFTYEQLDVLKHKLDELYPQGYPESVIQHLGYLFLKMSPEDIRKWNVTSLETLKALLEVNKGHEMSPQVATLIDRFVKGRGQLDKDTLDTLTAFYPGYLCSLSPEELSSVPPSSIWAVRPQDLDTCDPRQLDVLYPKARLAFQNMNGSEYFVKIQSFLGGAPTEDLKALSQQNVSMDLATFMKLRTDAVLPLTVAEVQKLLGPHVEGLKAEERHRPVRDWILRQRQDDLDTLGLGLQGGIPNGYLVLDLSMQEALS
Method: (§1) The desired cells were expanded to the logarithmic growth phase in a T-75 cell culture flask. […] After the cells from the previous step were subjected to cell counting, the cell pellet was resuspended to 2×10⁶ cells/mL in a blocking buffer of [PBS+2% (w/w) BSA] and added into a 96-well FACS reaction plate at 50 μL/well. A chimeric antibody (a sample to be tested) was added at 50 μL/well, and the plate was incubated on ice for 2 h. […] After the plate was centrifuged and washed 5 times with a PBST buffer, assay and analysis were performed by FACS (FACS CantoII, purchased from BD). Data analysis was performed by software (Flowjo) to obtain the mean fluorescence intensity (MFI) of the cells.

| EC50 [nM] | Maximum mean fluorescence intensity | Binder |
| --- | --- | --- |
| 1.15 | 112000 | B3 |
| 5.79 | 138000 | B4 |
| 2.39 | 144000 | B5 |
| 3.95 | 148000 | B6 |
| ~0.79 | 67000 | B7 |
| ~0.82 | 91800 | B8 |
| 0.88 | 109000 | B9 |
| ~0.82 | 98200 | B10 |

The binders below were run against T4, human MSLN protein endogenously expressed on OVCAR3 tumor cells (human, UniProt Q13421 296-598) (assay: FACS on OVCAR3 cells).
T4 construct: whole, on cells; Endogenous target on OVCAR3 cells; kept apart from the recombinant full-length construct; also called mesothelin
T4 sequence (Q13421 other isoform, or with tags, fused parts or gaps): as the sequence (Q13421 other isoform, or with tags, fused parts or gaps limits assumed) above, with P14R counted along it
Method: as §1

| EC50 [nM] | Maximum mean fluorescence intensity | Binder |
| --- | --- | --- |
| 0.57 | 14800 | B3 |
| 5.52 | 14600 | B4 |
| 1 | 14600 | B5 |
| 2.92 | 17600 | B6 |
| 0.54 | 6140 | B7 |
| – | 5260 | B8 |
| 2.96 | 14400 | B9 |
| 10.4 | 15400 | B10 |

Target: T2, human MSLN-R3 protein
Assay: ELISA on coated antigen, antibody 1 nM
Remark: another data set of the same source

| OD450 [OD450] | Binder |
| --- | --- |
| 0.51 | B1 |
| 0.06 | B2 |

Each binder was assayed against T5, human MSLN-R3 protein (Met487-Ser606 of NCBI AAH09272.1) expressed on HEK293T-hMSLN-R3 cells (human, UniProt Q13421 487-606) (assay: FACS on HEK293T-hMSLN-R3 cells).
T5 construct: also called Region3
T5 sequence (Q13421 495-614): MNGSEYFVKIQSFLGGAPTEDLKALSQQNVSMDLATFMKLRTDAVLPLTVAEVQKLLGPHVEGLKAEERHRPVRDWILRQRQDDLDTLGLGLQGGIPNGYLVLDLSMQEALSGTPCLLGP
Method: as §1

| Maximum mean fluorescence intensity | binding result | EC50 [nM] | Binder |
| --- | --- | --- | --- |
| 112 | no binding | – | B3 |
| 3290 | – | 4.19 | B4 |
| 3880 | – | 0.5 | B5 |
| 3840 | – | 1.48 | B6 |
| 94 | no binding | – | B7 |
| 348 | no binding | – | B8 |
| 114 | no binding | – | B9 |

Target: T2, human MSLN-R3 protein
Assay: ELISA on coated antigen, antibody 0.01 nM
Remark: another data set of the same source

| OD450 [OD450] | Binder |
| --- | --- |
| 0.05 | B1 |
| 0.04 | B2 |

Target: T1, monkey MSLN full-length protein (NCBI: …)
Assay: FACS on HEK293T-monkey MSLN cells
Method: as §1

| Maximum mean fluorescence intensity | binding result | EC50 [nM] | Binder |
| --- | --- | --- | --- |
| 138 | no binding | – | B3 |
| 20800 | – | 4.18 | B4 |
| 20400 | – | ~0.83 | B5 |
| 24300 | – | 1.63 | B6 |
| 95 | no binding | – | B7 |
| 20100 | – | 0.44 | B8 |
| 18400 | – | 0.3 | B9 |
| 17100 | – | 0.32 | B10 |

Target: T2, human MSLN-R3 protein
Assay: ELISA on coated antigen, antibody 0.1 nM
Remark: another data set of the same source

| OD450 [OD450] | Binder |
| --- | --- |
| 0.09 | B1 |
| 0.04 | B2 |

What follows are binders tested against T2, human MSLN-R3 protein (assay: ELISA on coated antigen, antibody 100 nM).

| OD450 [OD450] | Binder |
| --- | --- |
| 2.1 | B1 |
| 0.98 | B2 |

Target: T2, human MSLN-R3 protein
Assay: ELISA on coated antigen, antibody 100 nM
Remark: another data set of the same source

| OD450 [OD450] | Binder |
| --- | --- |
| 2.1 | B1 |
| 0.98 | B2 |
